Assay [1] addresses T15 peptide derived from the human α-tubulin αK40 loop (human).
For assay [2], the target named is T9 peptide derived from the human α-tubulin αK40 loop (human).
Assay [3] deals with free alpha/beta-tubulin dimers from porcine brain (pig (purified from porcine brain)) (UniProt P02550).

Drawing on paper PMC5599508, this text covers KM of the deacetylation of the acetylated αK40-derived peptide by HDAC6 (HPLC-based assay) and KM of the deacetylation of free tubulin dimers by HDAC6 (steady-state kinetics, Western blot quantification) for one substance.

UniProt P02550, sequence (P02550 whole entry, chain 1 of 2): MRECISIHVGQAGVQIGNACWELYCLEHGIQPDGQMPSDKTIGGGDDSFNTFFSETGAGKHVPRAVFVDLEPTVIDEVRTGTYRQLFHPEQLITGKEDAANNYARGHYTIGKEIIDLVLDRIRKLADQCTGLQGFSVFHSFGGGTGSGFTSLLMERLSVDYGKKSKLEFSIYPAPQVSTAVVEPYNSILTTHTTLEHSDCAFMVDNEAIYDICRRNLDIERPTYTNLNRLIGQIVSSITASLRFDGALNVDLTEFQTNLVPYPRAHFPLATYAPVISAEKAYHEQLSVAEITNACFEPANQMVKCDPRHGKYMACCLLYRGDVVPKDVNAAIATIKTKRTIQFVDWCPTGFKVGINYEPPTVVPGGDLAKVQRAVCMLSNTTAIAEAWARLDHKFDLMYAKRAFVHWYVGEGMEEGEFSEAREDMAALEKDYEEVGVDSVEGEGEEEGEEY
UniProt P02550, sequence (P02554 whole entry, chain 2 of 2, further chain): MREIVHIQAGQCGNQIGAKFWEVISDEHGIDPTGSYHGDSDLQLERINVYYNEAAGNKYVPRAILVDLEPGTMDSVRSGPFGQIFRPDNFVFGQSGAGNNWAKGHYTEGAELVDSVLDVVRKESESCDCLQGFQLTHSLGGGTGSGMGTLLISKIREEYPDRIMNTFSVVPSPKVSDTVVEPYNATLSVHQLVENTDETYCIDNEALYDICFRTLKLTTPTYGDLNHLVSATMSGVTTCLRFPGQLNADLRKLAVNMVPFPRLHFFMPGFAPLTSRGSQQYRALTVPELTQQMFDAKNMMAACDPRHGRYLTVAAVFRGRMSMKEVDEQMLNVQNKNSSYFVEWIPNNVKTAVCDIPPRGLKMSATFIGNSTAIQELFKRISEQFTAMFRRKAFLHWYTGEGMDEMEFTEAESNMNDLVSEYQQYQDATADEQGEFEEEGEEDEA

In the case of “untagged full-length human histone deacetylase 6 (from UniProt Q9UBN7-1 1-1215) (enzyme)”, the results for the KM of the deacetylation of the acetylated αK40-derived peptide by HDAC6 (HPLC-based assay) in assay [1] and in assay [2] were 328 µM and 88 µM, respectively. Further, the KM of the deacetylation of free tubulin dimers by HDAC6 (steady-state kinetics, Western blot quantification) in assay [3] amounted to 0.23 µM.
